Test results: PMC8049259, “Structure of the E. coli agmatinase, SPEB” (PLoS ONE, 2021)

Molecular target: the molecule itself
Test: SEC; Superdex 200 10/300 GL, 30 mM Tris pH 7.0, 50 mM sodium chloride; oligomeric state judged from the elution profile

B1: E. coli agmatine ureohydrolase (agmatinase, SPEB) (enzyme, UniProt P60651 1-306, looked up)
chain: MSTLGHQYDNSLVSNAFGFLRLPMNFQPYDSDADWVITGVPFDMATSGRAGGRHGPAAIRQVSTNLAWEHNRFPWNFDMRERLNVVDCGDLVYAFGDAREMSEKLQAHAEKLLAAGKRMLSFGGDHFVTLPLLRAHAKHFGKMALVHFDAHTDTYANGCEFDHGTMFYTAPKEGLIDPNHSVQIGIRTEFDKDNGFTVLDACQVNDRSVDDVIAQVKQIVGDMPVYLTFDIDCLDPAFAPGTGTPVIGGLTSDRAIKLVRGLKDLNIVGMDVVEVAPAYDQSEITALAAATLALEMLYIQAAKKGE
notes: E. coli agmatinase SPEB, UniProt P60651, a 306 residue protein; cloned in pTHT (a pET-28 variant with a TEV protease site in place of the thrombin site); Two Mn2+ ions were modelled in each active site; also called agmatine amidinohydrolase; SPEB-THT (plasmid); source: E. coli BL21(DE3), purified (Ni-NTA, size exclusion chromatography)
- stoichiometry N: 6
